Source: patent US20180214514A1 (GEORGETOWN UNIVERSITY, published 2018)

B1: human recombinant FGFR1 Fc chimera (Fc fusion, UniProt P11362 22-376, looked up)
chain: RPSPTLPEQAQPWGAPVEVESFLVHPGDLLQLRCRLRDDVQSINWLRDGVQLAESNRTRITGEEVEVQDSVPADSGLYACVTSSPSGSDTTYFSVNVSDALPSSEDDDDDDDSSSEEKETDNTKPNRMPVAPYWTSPEKMEKKLHAVPAAKTVKFKCPSSGTPNPTLRWLKNGKEFKPDHRIGGYKVRYATWSIIMDSVVPSDKGNYTCIVENEYGSINHTYQLDVVERSPHRPILQAGLPANKTVALGSNVEFMCKVYSDPQPHIQWLKHIEVNGSKIGPDNLPYVQILKTAGVNTTDKEMEVLHLRNVSFEDAGEYTCLAGNSIGLSHHSAWLTVLEALEERPAVMTSPLYLE
notes: It was immobilized on a CM-5 SPR chip; not shown: Fc part of the chimera
B2: MBP-tagged C66 fusion protein (C-terminal 66-amino acid FGF-binding domain of human BP3) (other, not shown: large carriers)
chain: APPKENPSERKTNEGKRKAALVPNEERPMGTGPDPDGLDGNAELTETYCAEKWHSLCNFFVNFWNG
notes: MBP fusion with an apparent molecular mass of 52 kDa; also called C66 fragment; C-terminal hBP3 region

What was measured:
[1] = target: T1, MBP-tagged recombinant human FGFBP3 (MBP-BP3) (human, UniProt P0AEX9 27-392 = MBP, limits assumed); experiment: SPR, BP3 over immobilized FGFR1 Fc chimera (FIG. 6B)
T1 construct: Bacterially expressed MBP fusion; The order MBP then BP3 follows the pMAL-p2X vector design; also called hBP3
Protocol: (§1) Biacore T200 instrument (GE Healthcare) was used for surface plasmon resonance measurements. Human recombinant FGFR4 or FGFR1 Fc chimera in HBS-P buffer (0.01 M HEPES pH 7.4, 0.15 M NaCl, 0.05% P-20) were immobilized on a flow cell of a CM-5 sensor chip (GE Healthcare, Piscataway, N.J.) via amine coupling. A blank flow cell was used as a negative control for non-specific binding to the sensor surface. […] Dissociation constants were calculated from the association and dissociation rates of the proteins after washing. The experiments were performed in triplicate.

[2] = target: T2, human recombinant FGFR4 Fc Chimera (human, UniProt P22455 22-369); experiment: SPR, C66 over immobilized FGFR4 (FIG. 7B)
T2 construct: Bought reagent; It was immobilized on ELISA plates and on a CM-5 SPR chip; also called FGF Receptor 4; fibroblast growth factor receptor 4; Fc part of the bought chimera not given
Protocol: as §1

human recombinant FGF19 = target: T3, human recombinant FGF19 (human, UniProt O95750 25-216); experiment: SPR, C66 over immobilized FGF19 (FIG. 7B)
T3 construct: Bought recombinant protein; also called fibroblast growth factor 19

[3] = target: B1; experiment: SPR, equilibrium binding to immobilized FGFR1 Fc chimera (FIG. 7C)
Protocol: as §1

T3 sequence (O95750 25-216 limits assumed): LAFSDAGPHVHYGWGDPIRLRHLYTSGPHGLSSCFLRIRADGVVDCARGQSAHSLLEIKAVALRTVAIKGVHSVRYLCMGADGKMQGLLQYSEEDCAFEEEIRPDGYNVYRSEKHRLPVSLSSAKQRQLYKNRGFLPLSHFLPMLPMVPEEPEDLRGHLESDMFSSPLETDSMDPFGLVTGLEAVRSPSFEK

**Q.** Does B1 bind [1]?
**A.** no binding (tested: 4, 2, or 1 nM)

**Q.** Does B2 bind [2]?
**A.** no binding (tested: 245 nM)

**Q.** Does B2 bind (human recombinant FGF19)?
**A.** binds

**Q.** Does B2 bind [3]?
**A.** no binding (tested: 245 nM)
